In patent US20210198650A1 (NIBEC, published 2021):

T1: cadherin6 (CDH6)-fc fusion protein (UniProt P55285 54-615, limits assumed)
T1 construct: Immobilised on a carboxymethyl dextran SPR chip; also called K-cadherin
T1 sequence (looked up): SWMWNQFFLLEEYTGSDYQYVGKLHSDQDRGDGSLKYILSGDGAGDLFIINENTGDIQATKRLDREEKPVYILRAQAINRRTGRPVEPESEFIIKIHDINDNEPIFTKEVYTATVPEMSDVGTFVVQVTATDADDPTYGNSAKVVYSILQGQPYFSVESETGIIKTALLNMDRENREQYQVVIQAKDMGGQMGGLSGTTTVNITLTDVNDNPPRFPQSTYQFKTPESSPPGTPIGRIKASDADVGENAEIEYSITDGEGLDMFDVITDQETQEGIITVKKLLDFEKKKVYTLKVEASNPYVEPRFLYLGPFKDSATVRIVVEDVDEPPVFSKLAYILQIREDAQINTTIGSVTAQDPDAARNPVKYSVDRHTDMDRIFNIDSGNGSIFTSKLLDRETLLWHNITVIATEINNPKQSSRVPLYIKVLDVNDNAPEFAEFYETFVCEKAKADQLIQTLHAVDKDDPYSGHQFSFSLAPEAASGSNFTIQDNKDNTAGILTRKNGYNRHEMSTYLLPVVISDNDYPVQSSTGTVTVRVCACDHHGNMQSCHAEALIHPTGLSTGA

B1: GRS-DP polypeptide (GRS 531-600 aa) (peptide)
peptide: MYTVFEHTFHVREGDEQRTFFSFPAVVAPFKCSVLPLSQNQEFMPFVKELSEALTRHGVSHKVDDSSGSI
notes: Linear truncated GRS fragment; also called GRS-DP peptide
B2: GRS-DP-A cyclic (peptide)
peptide: CYTVFEHTFHVREGDEQRTFFSFPC
modifications: cyclic form: "monosulfide linkage" formed between the cysteine residues at the opposite termini (Cys 1 and Cys 25)
notes: Cyclised by spontaneous reaction at pH 8; 3.083 kDa; also called GRS-DP-A cyclic variant

Target: T1, cadherin6 (CDH6)-fc fusion protein
Test: SPR, CDH6-Fc immobilised on carboxymethyl dextran chip, peptide injected
Procedure: Comparison was made of the affinity of the peptides of the present invention for CDH6. The binding of GRS and GRS-derived peptides to cadherin6 (CDH6)-fc fusion protein was analyzed by surface plasmon resonance (SPR) using SR7500DC, Reichert Analytical Instrument (Depew NY). CDH6 was immobilized on a [CMDH chip] carboxymethyl dextran sensor chip via a free carboxyl group on the surface thereof, followed by injecting 0.1M 1-ethyl-3-(3-dimethylaminopropyl) carbodiimide hydrochloride and 0.05M N-hydroxysuccinimide at a flow speed of 5 μL/min to give an activated succinimide ester-modified surface. Various concentrations of GRS and GRS-derived peptides were injected at a flow speed of 30 μL/min into phosphate-based saline, after which a mobile-phase buffer was injected at the same flow speed to determine a dissociation rate. Data was analyzed using Software Scrubber 2.0 (Biological Software, Australia).

Row | Kd [nM] | Binder
1 | 83.9 | B1
2 | 61.2 | MYTVFEHTFHVREGDEQRTFFSFPA (Linear 25-mer, 3.079 kDa) [GRS-DP-A linear (GRS 531-555 aa)]
3 | 51.3 | B2
